Experimental data from PMC5715097.

Biological target: Sulfolobus solfataricus RNA polymerase (S. solfataricus)

transcription elongation assay on a synthetic scaffold: excess of TFS1 over TFS4 needed for 50% relief of the inhibition by TFS4 (fold excess of TFS1 over TFS4): 2
Substance: Sulfolobus solfataricus TFS4 (from UniProt Q97X43 1-92) (natural protein)
